Legend:
[1] = Adsorption isotherm on aluminum hydroxide adjuvant; type: binding; conditions: Rehydragel HPA aluminum hydroxide 20-26 μg/mL, 4° C., micro BCA assay
Procedure: The phosphorus containing groups described herein bind adjuvants. Compounds containing a phosphorus containing group and a UV chromophore are prepared and quantitative binding data are obtained as adsorption isotherms. Briefly, Rehydragel HPA aluminum hydroxide was suspended (113 μg/mL) in buffer, and varying concentrations of each of compounds E, F, G, and H are added. The suspensions are allowed to equilibrate, and the concentration of each compound in solution at equilibrium is measured. The amount of compound adsorbed (weight/weight) is plotted against the concentration in solution to generate the adsorption isotherm. Adsorption capacity and adsorptive coefficient are calculated for each compound by double reciprocal analysis; the results are summarized in the following table.
Compound B is coupled to egg white lysozyme. […] After centrifugation, the protein concentration in the supernatant is measured by a standard micro bicinchoninic acid protein assay procedure. […]
Adsorption of Compound H (Egg white Lysozyme/Compound B conjugate) by Aluminum Hydroxide. […] The supernatant was analyzed in triplicate for compound H concentration by the micro bicinchoninic acid (BCA) assay. The amount of compound H adsorbed was determined by subtracting the amount remaining in the supernatant from the amount initially present. […]

Mice = assay: Anti-lysozyme antibody response in mice, conjugated vs unconjugated lysozyme; type: in vivo; conditions: 10 μg dose, FIG. 2
Procedure: Compound B-Lysozyme-P2 is prepared in a similar manner using a greater excess of conjugating agent compound B. To determine the magnitude of immunogenic enhancement for the linker-modified protein, a dose response is evaluated comparing a range of doses of compound B-Lysozyme-P2 and AH, to a range of doses of unmodified hen egg lysozyme and AH, according to the following table:
Mice are injected on day 0 and day 21. Blood is collected on day 21 and on day 35. Serum anti-lysozyme IgG and anti-lysozyme IgG subclasses are measured by ELISA assay.
Dose response comparison of conjugated and unconjugated lysozyme immunological response. […] preparations are investigated: (A), lysozyme alone (10 μg dose); (B), lysozyme (10 μg dose)+AH; (C), lysozyme-P2 (2 conjugate load, 10 μg dose)+AH; (D) lysozyme (1 μg dose)+AH; (E), lysozyme-P2 (1 μg dose)+AH.

[2] = reported, Hem et al., Vaccine 1995; cited from earlier work

**Q.** Which results are given for “lysozyme: egg white lysozyme (16 kDa MW), unmodified”?
**A.** Affinity for aluminum hydroxide (in words) [1]: poor electrostatic binding with aluminum hydroxide; anti-lysozyme antibody production (Mice): does not show a significant induction of antibody response; Complexation by aluminum hydroxide (in words) [2]: negligibly complexed

Source: patent US10010616B2, “Immunogenic compositions and reagents for preparing” (PURDUE RESEARCH FOUNDATION, priority 2011, dated 2018)
